Consider 15 molecules from US20190300590A1 (PROTAGONIST THERAPEUTICS, published 2019).

Read-outs that look alike come from different tables or passages of the source. Bridges are numbered along the chain shown (N, C = ends). [ ]: non-standard residue; d: D form. 2Nal = N[C@@H](Cc1ccc2ccccc2c1)C(=O)O; AEF = NCCOc1ccc(C[C@H](N)C(=O)O)cc1; αMeL = CC(C)C[C@](C)(N)C(=O)O; Pen = CC(C)(S)[C@H](N)C(=O)O; hLeu = CC(C)CC[C@H](N)C(=O)O; αMeK = C[C@](N)(CCCCN)C(=O)O; Ac6c = NC1(C(=O)O)CCCCC1; Abu = CC[C@H](N)C(=O)O; βAla = NCCC(=O)O

One assay has as its target T1, IL-23R on DB cells (human, UniProt Q5VWK5 24-629).
T1 sequence (looked up): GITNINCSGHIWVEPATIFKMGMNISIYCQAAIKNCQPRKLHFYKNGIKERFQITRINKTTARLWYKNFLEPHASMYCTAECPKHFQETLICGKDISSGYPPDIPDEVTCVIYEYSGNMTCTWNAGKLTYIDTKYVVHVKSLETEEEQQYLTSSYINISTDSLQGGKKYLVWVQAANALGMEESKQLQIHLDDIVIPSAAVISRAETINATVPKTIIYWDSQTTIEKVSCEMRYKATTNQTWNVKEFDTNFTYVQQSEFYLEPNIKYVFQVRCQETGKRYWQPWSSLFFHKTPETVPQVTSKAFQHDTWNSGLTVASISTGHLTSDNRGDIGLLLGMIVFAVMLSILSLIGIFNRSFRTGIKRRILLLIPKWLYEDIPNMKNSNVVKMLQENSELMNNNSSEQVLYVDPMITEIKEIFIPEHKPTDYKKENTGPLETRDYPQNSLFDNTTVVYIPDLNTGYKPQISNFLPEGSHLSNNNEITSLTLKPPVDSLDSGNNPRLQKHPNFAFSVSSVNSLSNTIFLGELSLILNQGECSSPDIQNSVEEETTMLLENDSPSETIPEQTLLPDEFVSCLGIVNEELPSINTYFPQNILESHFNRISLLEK
The experiment in a line: cell-based or functional assay.

The next assay has as its target T2, IL23R_huFC (human, UniProt Q5VWK5 24-353).
T2 sequence (looked up): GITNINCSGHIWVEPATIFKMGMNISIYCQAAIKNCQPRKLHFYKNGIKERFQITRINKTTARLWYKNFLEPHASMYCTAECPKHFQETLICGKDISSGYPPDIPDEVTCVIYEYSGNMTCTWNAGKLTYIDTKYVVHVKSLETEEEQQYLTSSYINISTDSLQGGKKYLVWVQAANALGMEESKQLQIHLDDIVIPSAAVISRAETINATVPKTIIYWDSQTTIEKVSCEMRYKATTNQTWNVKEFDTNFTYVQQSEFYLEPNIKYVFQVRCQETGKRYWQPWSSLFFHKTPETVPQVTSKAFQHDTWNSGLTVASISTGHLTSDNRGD
The experiment in a line: IL23-IL23R competitive binding ELISA. A general note: In an ELISA, binding on a coated surface is turned into a signal by an enzyme label.

The target in assay [1] is T3, Rat IL-23R_huFC (rat, UniProt F1LX96 39-369).
T3 sequence: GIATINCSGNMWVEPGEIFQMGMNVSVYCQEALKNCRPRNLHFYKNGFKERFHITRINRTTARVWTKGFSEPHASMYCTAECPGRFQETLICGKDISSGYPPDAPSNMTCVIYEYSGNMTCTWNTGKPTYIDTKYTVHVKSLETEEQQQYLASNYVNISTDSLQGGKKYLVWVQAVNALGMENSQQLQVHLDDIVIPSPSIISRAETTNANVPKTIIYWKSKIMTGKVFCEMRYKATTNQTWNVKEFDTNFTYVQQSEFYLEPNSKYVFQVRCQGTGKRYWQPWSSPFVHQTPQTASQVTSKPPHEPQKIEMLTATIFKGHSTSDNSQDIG
The experiment in a line: rat IL-23R competitive binding ELISA.

In assay [2] the target is T4, IL-23R on human cells (IL-23R-expressing DB cells; human NK cells) (human, UniProt Q5VWK5 24-629).
T4 sequence (looked up): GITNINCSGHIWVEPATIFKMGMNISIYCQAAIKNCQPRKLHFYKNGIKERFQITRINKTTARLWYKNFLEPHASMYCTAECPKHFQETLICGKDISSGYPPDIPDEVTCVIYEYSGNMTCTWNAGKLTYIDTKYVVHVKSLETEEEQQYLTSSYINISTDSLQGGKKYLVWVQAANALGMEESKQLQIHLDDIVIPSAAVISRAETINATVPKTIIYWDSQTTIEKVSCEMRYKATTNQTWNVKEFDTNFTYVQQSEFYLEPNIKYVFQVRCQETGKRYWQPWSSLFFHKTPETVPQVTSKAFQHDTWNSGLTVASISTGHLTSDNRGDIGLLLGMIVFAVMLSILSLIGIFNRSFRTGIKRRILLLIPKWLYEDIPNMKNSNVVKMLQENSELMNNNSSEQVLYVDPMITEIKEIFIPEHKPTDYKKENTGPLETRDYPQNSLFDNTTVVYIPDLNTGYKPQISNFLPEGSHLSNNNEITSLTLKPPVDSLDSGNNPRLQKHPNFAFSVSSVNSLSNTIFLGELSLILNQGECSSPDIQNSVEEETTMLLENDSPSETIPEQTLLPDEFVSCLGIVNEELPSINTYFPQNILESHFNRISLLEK
In words: cell-based or functional assay.

Assay [3] concerns the target T4, IL-23R on human cells …. The experiment in a line: cell-based or functional assay. This is another data set of the same source.
For assay [4], the target named is T3, Rat IL-23R_huFC. The experiment in a line: rat IL-23R competitive binding ELISA. This is another data set of the same source.

In the case of XQTWQXFXLQNN (Ac; Pen-Pen disulfide; Phe[4-(2-aminoethoxy)]; 2-Nal; α-MeLeu; NH2) [Ac-[Pen]-QTWQ-[Pen]-[Phe[4-(2-aminoethoxy)]-[2-Nal]-[α-MeLeu]-QNN-NH2], in the assay with IL-23R on DB cells, the “pStat3 HTRF IC50” value was under 10 nM. Also, the 50% inhibitory concentration (IC50) with IL23R_huFC and with Rat IL-23R_huFC [1] was under 10 nM throughout.

Ac-[Pen]TTWQ[Pen][AEF][2Nal][αMeK]ENG-NH2 (disulfide 1-6 (inferred)) [Ac-[Pen]-TTWQ-[Pen]-[Phe[4-(2-aminoethoxy)]-[2-Nal]-[α-MeLys]-ENG-NH2]: in the assay with IL-23R on DB cells, the “pStat3 HTRF IC50” value was under 10 nM. Besides, in the assay with IL23R_huFC, the 50% inhibitory concentration (IC50) lay in the range of 10 to 25 nM.

With XQTWQXFXKENA (Ac; Pen-Pen disulfide; Phe[4-(2-aminoethoxy)]; 2-Nal; α-MeLys; NH2) [Ac-[Pen]-QTWQ-[Pen]-[Phe[4-(2-aminoethoxy)]-[2-Nal]-[α-MeLys]-ENA-NH2], in the assay with IL-23R on DB cells, the “pStat3 HTRF IC50” value was under 10 nM. Moreover, the half-maximal inhibitory concentration (IC50) with IL23R_huFC was under 10 nM; with Rat IL-23R_huFC [1] it was 25 to 100 nM.

Take XQTWQXFXLKNN (Ac; Pen-Pen disulfide; Phe[4-(2-aminoethoxy)]; 2-Nal; α-MeLeu; Lys(Ac); NH2) [Ac-[Pen]-QTWQ-[Pen]-[Phe[4-(2-aminoethoxy)]-[2-Nal]-[α-MeLeu]-[Lys(Ac)]-NN-NH2]: the “pStat3 HTRF IC50” value with IL-23R on DB cells was under 10 nM. The IC50 in the assay with IL23R_huFC and in the assay with Rat IL-23R_huFC [1] was under 10 nM throughout.

Regarding XQTWQXFXKENG (Ac; Pen-Pen disulfide; Phe(4-OMe); 2-Nal; α-MeLys; NH2) [Ac-[Pen]-QTWQ-[Pen]-[Phe(4-OMe)]-[2-Nal]-[α-MeLys]-ENG-NH2], the half-inhibitory concentration (IC50) with IL23R_huFC is 25 to 100 nM; with Rat IL-23R_huFC [1], 100 to 1000 nM.

With Ac-[Pen]STWQ[Pen][AEF][2Nal][αMeK]ENG-NH2 (disulfide 1-6 (inferred)) [Ac-[Pen]-STWQ-[Pen]-[Phe[4-(2-aminoethoxy)]-[2-Nal]-[α-MeLys]-ENG-NH2], the “pStat3 HTRF IC50” value with IL-23R on DB cells was under 10 nM. Moreover, the IC50 with IL23R_huFC was in the range of 10 to 25 nM.

As to Ac-[Abu]QTWQC[AEF][2Nal][Ac6c]ENN-NH2 (thioether 1-6) [Ac-Cyclo-[[Abu]-QTWQC]-[Phe[4-(2-aminoethoxy)]]-[2-Nal]-[Achc]-ENN-NH2], the “NK cell assay IC50 (IFNγ)” value in assay [2] is under 25 nM. Also, the “pStat3 HTRF IC50” value in assay [3] is under 10 nM.

B1: pyroglutamic acid-[Pen]-QTWQ[Pen]-[Phe(4-OMe)]-[2-Nal]-[α-MeLys]-[Lys(Ac)]-NG-NH2 (peptide)
peptide: EXQTWQXFXKKNG
modifications: N-terminal pyroglutamic acid; Pen-Pen disulfide; Phe(4-OMe); 2-Nal; α-MeLys; Lys(Ac); NH2
As to B1, the “pStat3 HTRF IC50” value with IL-23R on DB cells was under 10 nM. Moreover, the half-maximal inhibitory concentration (IC50) with IL23R_huFC and in the assay with Rat IL-23R_huFC [1] was 25 to 100 nM each time.

CQTWQCYWXENG (Ac; 3-Pal; NH2) [Ac-CQTWQCYW-[3-Pal]-ENG-NH2]: the IC50 with Rat IL-23R_huFC [4] came out at 20 nM.

In the assay with Rat IL-23R_huFC [4], Ac-CQTWQCYW[hLeu]ENE-NH2 (disulfide 1-6 (inferred)) [Ac-CQTWQCYW-[hLeu]-ENE-NH2] had a half-maximal inhibitory concentration (IC50) of 1000 nM. Against the preceding molecule, the IC50 is about 50-fold higher.

On to Ac-CQTWQCYW[hLeu]EEG-NH2 (disulfide 1-6 (inferred)) [Ac-CQTWQCYW-[hLeu]-EEG-NH2], for which the IC50 with Rat IL-23R_huFC [4] was determined as 53 nM.

For the molecule Ac-[Abu]QTWQC[AEF][2Nal][αMeL]QN[βAla]-NH2 (thioether 1-6) [Ac-Cyclo-[[Abu]-QTWQC]-[Phe[4-(2-aminoethoxy)]]-[2-Nal]-[α-MeLeu]-QN-[βAla]-NH2], the “NK cell assay IC50 (IFNγ)” value in assay [2] is under 25 nM. In addition, the “pStat3 HTRF IC50” value in assay [3] is under 10 nM.

For the molecule XQTWQXYWXENG (Ac; Pen-Pen disulfide; α-MeOrn; NH2) [Ac-[Pen]-QTWQ-[Pen]-YW-[α-MeOrn]-ENG-NH2], the IC50 in the assay with IL23R_huFC and in the assay with Rat IL-23R_huFC [1] was 100 to 1000 nM in each case.

With FXQTWQCFXXENN (as bracketed in name; thioether cyclo), in assay [2], the “NK cell assay IC50 (IFNγ)” value is under 25 nM.

Turning to XQTWQXYWLENG (Ac; Pen-Pen disulfide; α-MeLeu; NH2) [Ac-[Pen]-QTWQ-[Pen]-Y-[α-MeLeu]-ENG-NH2], the “pStat3 HTRF IC50” value with IL-23R on DB cells lay within 10 to 25 nM. The half-inhibitory concentration (IC50) in the assay with IL23R_huFC is 25 to 100 nM; in the assay with Rat IL-23R_huFC [1], 100 to 1000 nM.

In general, IC50 refers to the concentration that gives 50% inhibition. Low readings indicate greater potency, high ones weaker potency.
